Test results taken from patent publication US20230279152A1 (published 2023).

What was measured:
[1] = biological target: T1, human Claudin 18.2 protein (human); experiment: FACS cell surface binding analysis
T1 construct: Expressed on transfected cells (CHO-hCLDN18.2, HEK293-hCLDN18.2, 3T3-hCLDN18.2) from pCMV3-hCLDN18.2; also called human CLDN18.2; hCLDN18.2

[2] = biological target: T1, human Claudin 18.2 protein; experiment: FACS on cells expressing CLDN18.2 versus cells expressing CLDN18.1 (reference: binding to CLDN18.1)
Description: FACS cell binding assays. […] Cells were fixed with 1% paraformaldehyde (PFA) prior to analysis on FACSCalibur cytometer (BD biosciences, Franklin Lakes, N.J., U.S.). Controls were cells with secondary antibody only, for which the mean fluorescent intensity (MFI) was set to 5.

[3] = biological target: T1, human Claudin 18.2 protein; experiment: cell-based or functional assay

T1 sequence (chain, as listed by the source limits assumed): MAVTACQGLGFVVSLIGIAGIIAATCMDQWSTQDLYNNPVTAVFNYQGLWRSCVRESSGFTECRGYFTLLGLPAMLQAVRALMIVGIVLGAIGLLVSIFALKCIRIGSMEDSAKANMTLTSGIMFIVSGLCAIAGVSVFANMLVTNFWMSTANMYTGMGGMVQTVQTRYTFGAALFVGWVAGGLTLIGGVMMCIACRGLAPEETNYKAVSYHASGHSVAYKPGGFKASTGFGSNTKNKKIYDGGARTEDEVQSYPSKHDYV

Binder | EC50 [1] [nM] | fold stronger binding to CLDN18.2 than to CLDN18.1 [2] [times] | TDCC activity (T cell dependent cellular cytotoxicity; CellTiter-Glo cell viability, PBMCs as effectors, 48 hours) [3] [pM]
32G4-huIgG1-V8 (antibody, V domains shown, Humanized full IgG1 antibody; also called humanized 32G4 variant V8; 32G4-V8) VH: QVQLVQSGAEVKKPGASVKVSCKASGYSSTGYNINWVRQAPGQGLEWMGNINPYYGGITYNQKFQGRVTMTVDKSISTAYMELSRLRSDDTVVYYCARDYYGNSFAYWGQGTLVTVSS VL: DIQMTQSPSSLSASVGDRVTITCRSSQSLLNSGNQKNYLTWYQQKPGKAPKLLIFWASTLESGVPSRFSGSGSGTDFTLTISSLQPEDFATYYCQNNYYFPYTFGQGTKLEIKR | 0.147 |  | 
47D10-huIgG1-V6 (antibody, V domains shown, Humanized full IgG1 antibody; also called humanized 47D10 variant V6; 47D10-V6) VH: QVQLVESGGGLVKPGGSLRLSCAASGFAFSSSAMSWIRQAPGKGLEWVATMTVGYIYTYYLDSVKGRFTISRDNAKNSLYLQMNSLRAEDTAVYYCARQGYGNAMDYWGQGTLVTVSS VL: DIVMTQSPLSLPVTPGEPASISCRSSQSLLNSGNQKNYLTWYLQKPGQSPQLLIYWASTRESGVPDRFSGSGSGTDFTLKISRVEAEDVGVYYCQNNYIYPLTFGQGTKLEIKR | 0.22 |  | 
47D10-huIgG1-V7 (antibody, V domains shown, Humanized full IgG1 antibody; also called humanized 47D10 variant V7; 47D10-V7) VH: QVQLVESGGGLVKPGGSLRLSCAASGFAFSSSAMSWIRQAPGKGLEWVATMTVGYIYTYYLDSVKGRFTISRDNAKNSLYLQMNSLRAEDTAVYYCARQGYGNAMDYWGQGTLVTVSS VL: DIVMTQSPGTLSLSPGERATLSCRSSQSLLNSGNQKNYLTWYQQKPGQAPRLLIYWASTRESGIPDRFSGSGSGTDFTLTISRLEPEDFAVYYCQNNYIYPLTFGQGTKLEIKR | 0.361 |  | 
32G4 mouse chimeric antibody (murine VH/VL on human IgG1 constant regions) (antibody, V domains shown, also called murine clone 32G4; mouse 32G4 chimeric control antibody) VH: EVQLQQSGPELENPGASVKIFCKASGYSSTGYNINWVKQSSGKSLEWIGNINPYYGGITYNQKFKGKATLTVDKSSSTAYVQLKSLTSEDSAVYYCARDYYGNSFAYWGQGTLVTVST VL: DIVMTQSPSSLTVTAGEKVTMSCKSSQSLLNSGNQKNYLTWYQQNPGQPPKLLIFWASTRESGVPDRFTGSGSGTDFTLTISSVQAEDLAVYYCQNNYYFPYTFGGGTKLEIR | 0.502 | ≥ 1000 | 
15B10 mouse chimeric antibody (murine VH/VL on human IgG1 constant regions) (antibody, V domains shown, also called murine clone 15B10) VH: QVQLQQSGAELVRPGTSVKVSCKASGYAFSNYLIDWVKQRPGQGLEWIGVIHPGSGTNYNENFKGKATLTADKSSSTAYMQLSSLTSDDSAVYFCSRRWYGNSLIYWGQGTLVTVSA VL: DIVMTQSPSSLTVTAGEKVTMTCKSSQSLLNSGNQRNYLTWYQQKPGQPPKLLIYWASTRESGVPDRFTGSGSGTDFTLTISSVQAEDLAVYYCQNDYFYPFTFGSGTKLEIK | 2.2 | ≥ 1000 | 
47D10 mouse chimeric antibody (murine VH/VL on human IgG1 constant regions) (antibody, V domains shown, also called murine clone 47D10; mouse 47D10 chimeric control antibody) VH: QVMLVESGGGLVKPGGSLKLSCAASGFAFSSSAMSWIRQTPEKRLEWVATMTVGYIYTYYLDTVKGRFIISRDNANNTLYLQMSSLRSEDSAMYYCARQGYGNAMDYWGQGTSVTVSS VL: DIVMTQSPSSLTVTAGEKVTMSCKSSQSLLNSGNQKNYLTWYQQKPGQPPKLLIYWASTRESGVPYRFTGSGSGTDFTLTISSVEAEDLAVYYCQNNYIYPLTFGAGTKLELK | 1.97 | ≥ 1000 | 
31A6 mouse chimeric antibody (murine VH/VL on human IgG1 constant regions) (antibody, V domains shown, also called murine clone 31A6) VH: QTYLQQSGAELVRSGASVKMSCKASGYTFASYNIHWVKQTPGQGLEWIGYIYPGKDGSHYNQKFRDKATLTADTSSSTAYMQISSLTSEDSAVYFCARGGYYGNSFDYWGQGTLVTVSA VL: DIVMSQSPSSLTVTTGEKVTMTCKSSQSLLNSGNLKNYLAWYQQKPGQPPKLLIYWASIRESGVPDRFTGSGSGTDFTLTIISVQAEDLAIYYCQNAYTFPFTLGGGTKLEIK | 10.9 | ≥ 1000 | 
47D10-huIgG1-V7×OKT3 (anti-CLDN18.2×CD3) bispecific antibody (bispecific antibody) heavy: not shown light: DIVMTQSPGTLSLSPGERATLSCRSSQSLLNSGNQKNYLTWYQQKPGQAPRLLIYWASTRESGIPDRFSGSGSGTDFTLTISRLEPEDFAVYYCQNNYIYPLTFGQGTKLEIKRTVAAPSVFIFPPSDEQLKSGTASVVCLLNNFYPREAKVQWKVDNALQSGNSQESVTEQDSKDSTYSLSSTLTLSKADYEKHKVYACEVTHQGLSSPVTKSFNRGECTSGGGGSGGGGSGGGGSQVQLVQSGGGVVQPGRSLRLSCKASGYTFTRYTMHWVRQAPGKGLEWIGYINPSRGYTNYNQKFKDRFTISRDNSKNTAFLQMDSLRPEDTGVYFCARYYDDHYSLDYWGQGTPVTVSSGGGGSGGGGSGGGGSGGGGSGGGGSGGGGSDIQMTQSPSSLSASVGDRVTITCSASSSVSYMNWYQQTPGKAPKRWIYDTSKLASGVPSRFSGSGSGTDYTFTISSLQPEDIATYYCQQWSSNPFTFGQGTKLQIT |  |  | 1
32G4-huIgG1-V9 (antibody, V domains shown, Humanized full IgG1 antibody; also called humanized 32G4 variant V9; 32G4-V9) VH: EVQLVQSGSELKKPGASVKVSCKASGYSSTGYNINWVRQAPGQGLEWIGNINPYYGGITYNQGFTGRFVLSVDKSSSTAYLQISSLKAEDTAVYYCARDYYGNSFAYWGQGTLVTVSS VL: DIVMTQSPDSLAVSLGERATINCKSSQSLLNSGNQKNYLTWYQQKPGQPPKLLIFWASTRESGVPDRFSGSGSGTDFTLTISSLQAEDVAVYYCQNNYYFPYTFGQGTKLEIKR | 0.129 |  | 
29G4 mouse chimeric antibody (murine VH/VL on human IgG1 constant regions) (antibody, V domains shown, also called murine clone 29G4) VH: QVQLKESGPGLVAPSQTLSITCTVSGFSLTNYGVQWVRQPPGKGLEWLGVIWAGGNTNYNSALLSRLSISKDTSKSQVFLKMNSLKTDDTAMYYCARGGYGNSCDYWGQGTLVTVSA VL: DIVMTQSPSSLTVTAGEKVTMNCKSSQSLLNSGNQKNYLAWYRQKPGQPPKLLIYWASTRGSGVPDRFTGSGSGTDFALTISSVQAEDLAVYYCQNDYFYPLTFGAGTKLDLK | 1.26 | ≥ 1000 | 
32G4-huIgG1-V8×OKT3 (anti-CLDN18.2×CD3) bispecific antibody (bispecific antibody) heavy: not shown light: DIQMTQSPSSLSASVGDRVTITCRSSQSLLNSGNQKNYLTWYQQKPGKAPKLLIFWASTLESGVPSRFSGSGSGTDFTLTISSLQPEDFATYYCQNNYYFPYTFGQGTKLEIKRTVAAPSVFIFPPSDEQLKSGTASVVCLLNNFYPREAKVQWKVDNALQSGNSQESVTEQDSKDSTYSLSSTLTLSKADYEKHKVYACEVTHQGLSSPVTKSFNRGECTSGGGGSGGGGSGGGGSQVQLVQSGGGVVQPGRSLRLSCKASGYTFTRYTMHWVRQAPGKGLEWIGYINPSRGYTNYNQKFKDRFTISRDNSKNTAFLQMDSLRPEDTGVYFCARYYDDHYSLDYWGQGTPVTVSSGGGGSGGGGSGGGGSGGGGSGGGGSGGGGSDIQMTQSPSSLSASVGDRVTITCSASSSVSYMNWYQQTPGKAPKRWIYDTSKLASGVPSRFSGSGSGTDYTFTISSLQPEDIATYYCQQWSSNPFTFGQGTKLQIT |  |  | 1
47D10-huIgG1-V6×OKT3 (anti-CLDN18.2×CD3) bispecific antibody (bispecific antibody) heavy: not shown light: DIVMTQSPLSLPVTPGEPASISCRSSQSLLNSGNQKNYLTWYLQKPGQSPQLLIYWASTRESGVPDRFSGSGSGTDFTLKISRVEAEDVGVYYCQNNYIYPLTFGQGTKLEIKRTVAAPSVFIFPPSDEQLKSGTASVVCLLNNFYPREAKVQWKVDNALQSGNSQESVTEQDSKDSTYSLSSTLTLSKADYEKHKVYACEVTHQGLSSPVTKSFNRGECTSGGGGSGGGGSGGGGSQVQLVQSGGGVVQPGRSLRLSCKASGYTFTRYTMHWVRQAPGKGLEWIGYINPSRGYTNYNQKFKDRFTISRDNSKNTAFLQMDSLRPEDTGVYFCARYYDDHYSLDYWGQGTPVTVSSGGGGSGGGGSGGGGSGGGGSGGGGSGGGGSDIQMTQSPSSLSASVGDRVTITCSASSSVSYMNWYQQTPGKAPKRWIYDTSKLASGVPSRFSGSGSGTDYTFTISSLQPEDIATYYCQQWSSNPFTFGQGTKLQIT |  |  | 1
